The term Kd denotes the free concentration of one partner at which half of the binding sites on the other are occupied at equilibrium, for simple one-to-one binding. A low value points to higher affinity.

The source of these data is patent publication US5587462, “Brain-derived membrane-associated CRF binding proteins” (The Salk Institute For Biological Studies, dated 1996).

For test [1], the target named is 33 kD ovine brain-derived membrane-associated CRF-BP (sheep (ovine)). The experiment in a line: competition of radiolabeled CRF binding by cold CRF.
Test [2] concerns the target 35 kD ovine brain-derived membrane-associated CRF-BP (sheep (ovine)). The test is described as above.
For test [3], the target named is T1, human Corticotropin-Releasing Factor (hCRF) (human (same molecule in rat), UniProt P06850, 125I-radiolabeled in the binding, cross-linking and LIRMA assays; immobilized on a solid-phase matrix in the affinity chromatography).
T1 peptide: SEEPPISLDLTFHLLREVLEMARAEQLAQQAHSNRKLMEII
The experiment in a line: binding assay with purified membrane-associated CRF-BP.

As for “Corticotropin-Releasing Factor (CRF), species not stated at the experiment (peptide)”, the concentration of cold CRF that competes in test [1] and in test [2] was 1 µM in each case.

B1: 35 kD ovine brain-derived membrane-associated CRF-BP (other)
chain: EAVDHDSFPHLAGGASPKRELEGEPLYRRALRCVDMLSLQGQFTFTADRRQLHCATFFIAEPEEFITIHYDLVSIDCLRGDILQVFDGWILKGEKFPSSQDHPLPTTERYVDFCDSGLSRRSIRSSQNVAMIFFRVHEPGNGFTITVKTEPNLFPCNIISQTPNGRFTLVMPHQHRNCSFSIIYPVAIKISDLTLGHLNGLQLKKSSAGCGGIGDFVELLGGTGLDPSKMLLLADLCYPLRGPAQMKVGCDHTVLRMVSSGKLLNRVTFEYRKLEPYELENPNGNSIQEFCLSTL
In test [3], B1 showed an equilibrium dissociation constant (Kd) of 7.5 nM.

B2: 33 kD ovine brain-derived membrane-associated CRF-BP (other)
chain: ELEGEPLYRRALRCVDMLSLQGQFTFTADRRQLHCATFFIAEPEEFITIHYDLVSIDCLRGDILQVFDGWILKGEKFPSSQDHPLPTTERYVDFCDSGLSRRSIRSSQNVAMIFFRVHEPGNGFTITVKTEPNLFPCNIISQTPNGRFTLVMPHQHRNCSFSIIYPVAIKISDLTLGHLNGLQLKKSSAGCGGIGDFVELLGGTGLDPSKMLLLADLCYPLRGPAQMKVGCDHTVLRMVSSGKLLNRVTFEYRKLEPYELENPNGNSIQEFCLSTL
B2 registered a Kd in test [3] of 0.25 nM.
